This experiment concerns the target T1, recombinant Pdr6 (S. cerevisiae, UniProt P32767 1-1081).
T1 construct: Pdr6/Kap122, S. cerevisiae; also called Kap122; source: E. coli NEB express, purified (Ni2+ chelate beads)
T1 sequence (looked up): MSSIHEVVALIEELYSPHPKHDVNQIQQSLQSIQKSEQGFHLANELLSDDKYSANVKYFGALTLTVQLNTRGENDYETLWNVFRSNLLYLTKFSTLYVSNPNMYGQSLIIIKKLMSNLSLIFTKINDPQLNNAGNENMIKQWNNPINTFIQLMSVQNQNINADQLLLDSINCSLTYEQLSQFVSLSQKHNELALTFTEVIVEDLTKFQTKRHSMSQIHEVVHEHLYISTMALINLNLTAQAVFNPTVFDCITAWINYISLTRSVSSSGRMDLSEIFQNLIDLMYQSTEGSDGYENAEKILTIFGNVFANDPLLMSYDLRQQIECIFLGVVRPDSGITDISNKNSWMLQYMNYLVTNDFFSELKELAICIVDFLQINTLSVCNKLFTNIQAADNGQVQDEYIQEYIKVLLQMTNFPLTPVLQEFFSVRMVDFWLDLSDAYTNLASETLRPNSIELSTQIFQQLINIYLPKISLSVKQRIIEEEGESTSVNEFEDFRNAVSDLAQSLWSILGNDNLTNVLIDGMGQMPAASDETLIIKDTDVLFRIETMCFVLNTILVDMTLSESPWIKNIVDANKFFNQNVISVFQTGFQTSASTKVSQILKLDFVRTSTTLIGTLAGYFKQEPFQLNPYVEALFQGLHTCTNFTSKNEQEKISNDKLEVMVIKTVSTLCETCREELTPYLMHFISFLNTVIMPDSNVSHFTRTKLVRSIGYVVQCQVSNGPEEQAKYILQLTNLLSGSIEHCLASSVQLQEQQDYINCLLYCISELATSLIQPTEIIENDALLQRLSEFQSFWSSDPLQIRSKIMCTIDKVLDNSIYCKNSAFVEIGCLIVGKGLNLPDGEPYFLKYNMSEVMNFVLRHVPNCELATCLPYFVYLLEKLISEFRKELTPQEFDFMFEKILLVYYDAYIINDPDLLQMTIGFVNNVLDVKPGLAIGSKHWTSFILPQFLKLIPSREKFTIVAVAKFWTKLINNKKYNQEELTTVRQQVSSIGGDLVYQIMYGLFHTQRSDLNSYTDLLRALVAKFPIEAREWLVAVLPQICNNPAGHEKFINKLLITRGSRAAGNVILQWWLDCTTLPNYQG
Description: pull-down; 1.5 µM H14-ZZ-NEDD8-Ubc9 as bait, 3 µM recombinant Pdr6, with or without 3 µM RanGTP and 3 µM eIF5A; anti-ZZ/ED affibody matrix, elution by NEDP1 tag cleavage; 1 h at 4°, 45 mM Tris/HCl pH 7.5, 100 mM NaCl, 2 mM MgCl2, 5 mM DTT; SDS-PAGE/Coomassie. As to conditions: both partners purified.

1 molecule from article PMC6548132, “Engineered SUMO/protease system identifies Pdr6 as a bidirectional nuclear transport receptor” (The Journal of Cell Biology, 2019) can be followed below.

B1: H14-ZZ-NEDD8–tagged Ubc9 (enzyme, yeast (S. cerevisiae), UniProt P50623 1-157, looked up)
chain: MSSLCLQRLQEERKKWRKDHPFGFYAKPVKKADGSMDLQKWEAGIPGKEGTNWAGGVYPITVEYPNEYPSKPPKVKFPAGFYHPNVYPSGTICLSILNEDQDWRPAITLKQIVLGVQDLLDSPNPNSPAQEPAWRSFSRNKAEYDKKVLLQAKQYSK
notes: Ubc9, SUMO-conjugating E2 enzyme of yeast; Tag is cut by NEDP1 only at elution; also called immobilized Ubc9; source: E. coli NEB express, purified (Ni2+ chelate beads)
Turning to B1, the binding result is reported as “binds”.
